Changes are numbered by the printed parent chain.
Legend:
[1] = target: T1, hFc-mROR1 (extracellular domain of mouse ROR1 fused to the Fc domain of human IgG1) (human; mouse, UniProt Q9Z139 30-406); assay: ELISA; hFc fusion captured by coated anti-human IgG1 Fc; anti-His-HRP; A405
T1 construct: extracellular domain; not shown: Fc domain of human IgG1
Description: (§1) The binding of each chimeric rabbit/human Fab to hROR1 and mROR1 fused with human IgG1 Fc (hFc-hROR1 and hFc-mROR1) was analyzed by ELISA. hFc-ROR1 or hFc-mROR1 were captured by anti-human IgG1 Fc antibody immobilized on plate and then incubated with hROR1 specific Fabs comprising a His-tag via detection with mouse anti-His tag.
(§2) ELISA: For ELISA (FIG. 2), each well of a 96-well Costar 3690 plate (Corning, Corning, N.Y.) was coated with 100 ng anti-human IgG1 Fc in 25 μL coating buffer (0.1 M Na₂CO₃, 0.1 M NaHCO₃, pH 9.6) for 1 h at 37° C. After blocking with 150 μL 3% (w/v) BSA/TBS for 1 h at 37° C., hFc-hROR1 or hFc-mROR1 was captured following incubation at 100 ng/50 μL for 1 h at 37° C. Then 100 ng/50 μL of Fab was applied in each well at 37° C. 2 h later, 50 μL of a 1:1000 dilution of a mouse anti-His tag mAb conjugated to horse radish peroxidase (HRP) (R&D Systems, Minneapolis, Minn.) in 1% (w/v) BSA/TBS was used to detect the Fab. To determine the epitopes (FIG. 4), hFc fusion proteins containing different domains of hROR1 were coated directly, followed by incubation with Fab before detection by mouse anti-His tag mAb conjugated to HRP. Washing with PBS was repeated and colorimetric detection was performed using 2,2′-azino-bis(3-ethylbenzthiazoline)-6-sulfonic acid (Roche) as substrate according to the manufacturer's directions. The absorbance was measured at 405 nm using a SpectraMax M5 microplate reader (Molecular Devices; Sunnyvale, Calif.) and SoftMax Pro software (Molecular Devices).

[2] = target: T2, hFc-hROR1 (extracellular domain of human ROR1 fused to the Fc domain of human IgG1) (human, UniProt Q01973 30-406); assay: SPR (Biacore X100); hFc-hROR1 captured by anti-human Fcγ antibody on CM5; Fab as analyte; 1:1 Langmuir fit
T2 construct: extracellular domain; also called hFc-ROR1; not shown: Fc domain of human IgG1
Description: (A) Shown are Biacore X100 sensorgrams obtained for the binding of each Fab to hFc-hROR1 captured by anti-human Fcγ antibody immobilized on CM5 chip after instantaneous background depletion. Fabs were injected at five different concentrations with the highest concentration indicated in table (B), one of the five concentrations was tested in duplicates. The equilibrium dissociation constant (Kd) was calculated from koff/kₒₙ (kₒₙ, association rate constant; koff, dissociation rate constant).
Surface plasmon resonance: Surface plasmon resonance for the measurement of the affinities of all Fabs to hFc-hROR1 and for epitope mapping studies were performed on a Biacore X100 instrument using Biacore reagents and software (GE Healthcare, Piscataway, N.J.). Anti-Human IgG (Fc) antibody was immobilized on a CM5 sensor chip following the instruction of Human Antibody Capture Kit (GE Healthcare, Piscataway, N.J.). The sensor chip included an empty flow cell for instantaneous background depletion. All binding assays used 1×HBS-EP+ running buffer (10 mM HEPES, 150 mM NaCl, 3 mM EDTA (pH 7.4), and 0.05% (v/v) Surfactant P20) and a flow rate of […]. […] The sensor chip was regenerated with […] from the Human Antibody Capture Kit without any loss of binding capacity. Calculation of association (kₒₙ) and dissociation (koff) rate constants was based on a 1:1 Langmuir binding model. The equilibrium dissociation constant (Kd) was calculated from koff/kₒₙ. For epitope mapping studies, each Fab was prepared at 500 nM alone in 1×HBS-EP+ running buffer and then injected in order as indicated in FIG. 5.

hROR2 = target: T3, hROR2 (human, UniProt Q01974); assay: flow cytometry on 63-12 / hROR2 cells; anti-His Alexa Fluor 488
T3 construct: full length, on the cell surface; also called 63-12 / hROR2; ROR2 on T47D cells
Description: Flow cytometry: Cells were stained using standard flow cytometry methodology. Briefly, for purified anti-ROR1 Fab (FIG. 3), 0.1-1×10⁶ cells were stained with 1000 ng/100 μL of Fab on ice for 1 h. After washing twice with ice-cold flow cytometry buffer (PBS containing 1% (v/v) BSA, 0.1% sodium azide and 1 mM EDTA), the cells were incubated with a 1:1000 dilution of a mouse anti-His tag mAb conjugated to Alexa Fluor 488 (Qiagen) in 100 μL flow cytometry buffer on ice for 30 min. For purified anti-ROR1 IgG1 (FIG. 8), 0.1-1×10⁶ cells were blocked by 4% goat serum for 15 min at room temperature and then incubated with 100 ng/100 μL of IgG on ice for 1 h. After washing twice with ice-cold flow cytometry buffer, cells were stained with a 1:500 dilution of goat anti-human IgG, Fcγ pAbs conjugated to APC (Jackson ImmunoResearch) in 100 μL flow cytometry buffer on ice for 30 min. For commercial goat anti human ROR1 polyclonal antibody (FIG. 8), 0.1-1×10⁶ cells were stained with 200 ng/100 μL of Ab on ice for 1 h. […] Finally, 4′,6-diamidino-2-phenylindole (DAPI) was added to a final concentration of 100 ng/mL to exclude dead cells from the analysis. Cells were analyzed using a FACSCalibur instrument (BD Biosciences) and FlowJo analytical software (Tree Star, Ashland, Oreg.).

Ig = target: T4, Ig (human, UniProt Q01973); assay: ELISA on directly coated hFc fusion proteins of hROR1 domains; anti-His-HRP; A405
T4 construct: Ig domain of the extracellular domain; also called hFc-hROR1-Ig
Description: as §2

Fr + Ki = target: T5, Fr + Ki (human, UniProt Q01973); assay: as above
T5 construct: Frizzled and Kringle domains of the extracellular domain; also called hFc-hROR1-Fr-Ki
Description: as §2

Fr = target: T6, Fr; assay: as above
T6 construct: also called hFc-hROR1-Fr
Description: as §2

Kr = target: T7, Kr (human, UniProt Q01973); assay: as above
T7 construct: Kringle domain of the extracellular domain; also called hFc-hROR1-Kr
Description: as §2

[3] = target: T8, hFc-hROR2 (extracellular domain of human ROR2 fused to the Fc domain of human IgG1) (human, UniProt Q01974 34-403); assay: ELISA as for hFc-hROR1; third bar series, keyed 'hFc-hROR1' a second time on the sheet, taken as hFc-hROR2 by legend paragraph 27
T8 construct: extracellular domain; not shown: Fc domain of human IgG1
Description: as §1, §2

[4] = target: human ROR1, full length, on cells (human, UniProt Q01973 30-937); assay: cell-based or functional assay
[5] = target: T9, twin strep-tagged human ROR2 extracellular domain (human, UniProt Q01974 34-403); assay: ELISA on coated twin-strep tagged human ROR2; anti-human Fcγ F(ab')2-HRP; absorbance 490 nm
T9 construct: extracellular domain; Expressed in HEK293T; also called ROR2-ECD-TwinStrep
Description: Each well of a 96-well plate was coated with 100 μL of 2 μg/mL strep-tagged human ROR1 (from Example 5) in 0.1 M bicarbonate coating buffer (pH 9.6), and incubated for 12 h at 4° C. A second 96-well plate was likewise prepared with twin-strep tagged human ROR2 (from Example 5).
HRP-conjugated F(ab′)₂ anti-human FC-gamma (Jackson Immunoresearch, 109-036-008) was then added at a 1:20′000 dilution, 100 μl per well, and incubated for 1 h at 37° C. prior to detection using an Spark 10M plate reader (Tecan).

Sequence of human ROR1, full length, on cells (Q01973 30-937): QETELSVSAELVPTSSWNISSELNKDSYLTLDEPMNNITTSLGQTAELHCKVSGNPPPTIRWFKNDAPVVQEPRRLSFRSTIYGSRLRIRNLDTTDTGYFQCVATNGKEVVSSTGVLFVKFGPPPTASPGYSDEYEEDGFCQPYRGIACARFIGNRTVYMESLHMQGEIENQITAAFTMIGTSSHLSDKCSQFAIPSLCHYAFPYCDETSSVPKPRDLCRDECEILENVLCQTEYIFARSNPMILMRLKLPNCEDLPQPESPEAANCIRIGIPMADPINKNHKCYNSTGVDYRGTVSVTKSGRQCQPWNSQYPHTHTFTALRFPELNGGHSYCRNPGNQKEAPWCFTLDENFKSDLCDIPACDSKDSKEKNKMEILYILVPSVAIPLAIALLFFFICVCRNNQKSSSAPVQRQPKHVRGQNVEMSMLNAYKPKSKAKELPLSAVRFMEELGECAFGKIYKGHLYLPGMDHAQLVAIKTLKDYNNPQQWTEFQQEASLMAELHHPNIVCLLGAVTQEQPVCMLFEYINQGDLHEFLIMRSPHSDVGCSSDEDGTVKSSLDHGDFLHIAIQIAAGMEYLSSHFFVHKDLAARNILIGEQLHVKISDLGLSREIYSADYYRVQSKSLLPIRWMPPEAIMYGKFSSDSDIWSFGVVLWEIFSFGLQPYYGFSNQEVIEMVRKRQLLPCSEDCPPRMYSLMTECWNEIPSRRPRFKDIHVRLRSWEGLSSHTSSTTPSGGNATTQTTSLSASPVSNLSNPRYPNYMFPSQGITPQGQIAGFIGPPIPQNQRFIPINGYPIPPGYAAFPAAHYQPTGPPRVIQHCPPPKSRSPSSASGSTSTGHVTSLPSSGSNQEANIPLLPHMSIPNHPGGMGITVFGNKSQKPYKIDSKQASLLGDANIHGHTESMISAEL
T2 sequence (Q01973 30-406): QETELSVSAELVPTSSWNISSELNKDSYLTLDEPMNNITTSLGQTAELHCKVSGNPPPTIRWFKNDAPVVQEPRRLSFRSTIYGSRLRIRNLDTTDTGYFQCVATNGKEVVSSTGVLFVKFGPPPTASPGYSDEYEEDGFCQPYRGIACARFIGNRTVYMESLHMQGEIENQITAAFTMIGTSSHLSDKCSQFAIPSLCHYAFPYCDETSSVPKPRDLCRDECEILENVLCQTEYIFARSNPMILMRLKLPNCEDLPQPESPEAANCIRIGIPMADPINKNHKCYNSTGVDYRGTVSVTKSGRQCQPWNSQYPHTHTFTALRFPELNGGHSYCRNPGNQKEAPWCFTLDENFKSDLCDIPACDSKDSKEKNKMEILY
T4 sequence (Q01973 42-147 limits assumed): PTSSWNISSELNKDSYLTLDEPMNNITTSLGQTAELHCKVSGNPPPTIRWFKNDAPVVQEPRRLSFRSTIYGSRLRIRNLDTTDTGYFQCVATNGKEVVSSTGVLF
T3 sequence (Q01974 34-943 limits assumed): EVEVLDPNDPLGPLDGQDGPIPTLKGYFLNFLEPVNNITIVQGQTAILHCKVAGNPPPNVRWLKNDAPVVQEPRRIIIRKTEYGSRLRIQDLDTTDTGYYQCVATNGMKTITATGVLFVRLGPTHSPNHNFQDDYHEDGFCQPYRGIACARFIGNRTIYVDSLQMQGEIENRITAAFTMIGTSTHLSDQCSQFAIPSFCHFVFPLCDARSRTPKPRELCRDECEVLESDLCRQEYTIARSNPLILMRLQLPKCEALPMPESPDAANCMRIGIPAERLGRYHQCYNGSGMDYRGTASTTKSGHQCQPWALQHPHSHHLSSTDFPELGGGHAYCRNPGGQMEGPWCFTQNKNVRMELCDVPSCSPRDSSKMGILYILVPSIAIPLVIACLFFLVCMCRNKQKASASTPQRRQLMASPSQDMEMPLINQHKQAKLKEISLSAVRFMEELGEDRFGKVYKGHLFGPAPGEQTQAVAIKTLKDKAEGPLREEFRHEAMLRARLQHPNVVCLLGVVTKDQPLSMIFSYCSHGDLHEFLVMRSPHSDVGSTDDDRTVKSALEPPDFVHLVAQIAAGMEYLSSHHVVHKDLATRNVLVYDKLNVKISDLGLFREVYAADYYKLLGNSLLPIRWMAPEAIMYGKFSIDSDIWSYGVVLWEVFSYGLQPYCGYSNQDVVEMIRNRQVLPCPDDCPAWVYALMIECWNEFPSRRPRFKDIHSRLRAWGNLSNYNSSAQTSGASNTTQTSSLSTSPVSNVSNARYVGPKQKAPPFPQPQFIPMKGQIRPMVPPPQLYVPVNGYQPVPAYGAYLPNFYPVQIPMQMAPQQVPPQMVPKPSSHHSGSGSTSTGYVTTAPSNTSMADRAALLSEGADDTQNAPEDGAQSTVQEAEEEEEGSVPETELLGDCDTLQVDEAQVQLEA
T6 sequence (chain, as listed by the source limits assumed): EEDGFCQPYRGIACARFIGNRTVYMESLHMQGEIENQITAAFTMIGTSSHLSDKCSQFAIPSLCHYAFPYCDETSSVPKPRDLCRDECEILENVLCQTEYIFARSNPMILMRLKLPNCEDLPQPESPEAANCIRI
T1 sequence (Q9Z139 30-406): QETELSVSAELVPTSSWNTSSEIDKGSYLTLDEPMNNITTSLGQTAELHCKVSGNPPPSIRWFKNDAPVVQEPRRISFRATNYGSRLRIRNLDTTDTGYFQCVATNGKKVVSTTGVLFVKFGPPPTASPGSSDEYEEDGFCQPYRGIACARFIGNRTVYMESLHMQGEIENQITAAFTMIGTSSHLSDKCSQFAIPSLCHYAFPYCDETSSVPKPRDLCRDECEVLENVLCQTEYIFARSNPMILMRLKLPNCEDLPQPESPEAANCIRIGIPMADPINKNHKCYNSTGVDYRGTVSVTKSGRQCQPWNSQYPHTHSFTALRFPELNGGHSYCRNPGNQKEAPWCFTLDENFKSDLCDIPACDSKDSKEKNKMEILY
T8 sequence (Q01974 34-403): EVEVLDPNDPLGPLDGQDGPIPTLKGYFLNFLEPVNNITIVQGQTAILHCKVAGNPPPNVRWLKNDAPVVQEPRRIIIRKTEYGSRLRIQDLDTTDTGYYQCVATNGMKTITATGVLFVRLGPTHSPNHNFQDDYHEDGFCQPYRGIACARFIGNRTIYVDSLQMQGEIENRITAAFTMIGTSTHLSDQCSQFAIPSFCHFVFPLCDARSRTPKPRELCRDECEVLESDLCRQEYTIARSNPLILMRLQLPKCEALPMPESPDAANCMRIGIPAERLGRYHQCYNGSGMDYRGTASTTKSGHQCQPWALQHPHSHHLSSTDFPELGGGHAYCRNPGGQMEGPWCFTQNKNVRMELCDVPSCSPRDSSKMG
T7 sequence (Q01973 312-391 limits assumed): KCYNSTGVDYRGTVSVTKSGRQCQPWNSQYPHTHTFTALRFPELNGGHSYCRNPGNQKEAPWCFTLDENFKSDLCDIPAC
T5 sequence (Q01973 165-391 limits assumed): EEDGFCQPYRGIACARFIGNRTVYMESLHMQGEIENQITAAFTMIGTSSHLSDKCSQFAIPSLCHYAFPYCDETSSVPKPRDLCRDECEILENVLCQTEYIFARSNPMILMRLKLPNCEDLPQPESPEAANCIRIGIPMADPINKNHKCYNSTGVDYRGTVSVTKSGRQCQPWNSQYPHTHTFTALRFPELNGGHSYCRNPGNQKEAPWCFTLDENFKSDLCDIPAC
T9 sequence (Q01974 34-403): as the sequence (Q01974 34-403) above

B1: ERR1-TOP4 chimeric rabbit/human Fab (Fab, V domains shown)
VH: QSVEESGGRLVTPGTPLTLTCTASGIDLSRYAVNWVRQAPGKGLEWIGVISGSGTTYYASWAKGRFTISKTSTTVDLKITSPTTEDTATYFCARGWATDGIFDYDDTFNLWGPGTLVTVSS
VL: SYELTQLPSVSVSLGQTARITCGGDSIESKAVHWYQQKPGLAPGLLVYNDDERPSGVPDRFSGSNSGDTATLTISGAQAGDEADYYCQLWDGSAYVFGGGTQLTVTG
notes: Chimeric rabbit/human Fab with His tag, expressed in E. coli (pET11a); lambda light chain
binding result [1]: no binding (tested: 100 ng/50 µL)
Kd [2]: 240 nM
koff [2]: 0.0592 s⁻¹
kon [2]: 247000 M⁻¹ s⁻¹
binding result (hROR2): no binding (tested: 1000 ng/100 µL)
binding result (Ig): no binding
binding result (Fr + Ki): no binding
binding result (Fr): no binding
binding result (Kr): no binding
binding result [3]: no binding (tested: 100 ng/50 µL)

B2: ERR1-409 chimeric rabbit/human Fab (Fab, V domains shown)
VH: QEQLVESGGRLVTPGGSLTLTCTASGFSLSSYYMGWVRQAPGKGLEWIGTIYGGSGSTWYASWVKGRFTISKTSTAVDLKITSLTTEDTATYFCARSYPGWTTEPYFDIWGPGTLVTVSS
VL: QFVLTQPQSVSGSLGQTVSISCNRDSGNIEDYYVHWYQQHPGKAPTTVIYNDDQRPSGVPDRFSGSIDSTSNSASLTITGLLAEDEADYYCLSSDSSAYVFGGGTQLTVTG
notes: as for B1
binding result [1]: no binding (tested: 100 ng/50 µL)
Kd [2]: 281 nM
koff [2]: 0.0162 s⁻¹
kon [2]: 57500 M⁻¹ s⁻¹
binding result (hROR2): no binding (tested: 1000 ng/100 µL)
binding result (Ig): no binding
binding result (Fr + Ki): no binding
binding result (Fr): no binding
binding result (Kr): no binding
binding result [3]: no binding (tested: 100 ng/50 µL)

B3: HuXBR1-402(3)-G5-PNU (Adc456) (other)
VH: QVQLRESGPGLVKPSETLSLTCTVSGFDISSYYMSWVRQPPGKGLEWIGAIGISGNAYYASWAKSRVTISRDTSKNQFSLKLSSVTAADTAVYYCARDHPTYGMDLWGPGTLVTVSS
VL: SYELTQPLSVSVALGQTARITCEGNNIGSKAVHWYQQKPGQAPVLVIYDDDERPSGIPERFSGSNSGNTATLTISRAQAGDEADYYCQVWDSSAYVFGGGTKLTVLG
modifications: Gly5-EDA-PNU joined by sortase to the C-terminal G5SLPETG tag of the full light chain; Gly5-EDA-PNU joined by sortase to the C-terminal LPETG tag of the full heavy chain
IC50 values on 697 cells (in vitro cell killing) [4]: 98.1 ng/mL

B4: HuXBR1-402(15)-G5-PNU (Adc458) (other)
VH: B3 VH with R5Q
VL: B3 VL with L8P, L14P, Q16K, A77V, Q78E
modifications: Gly5-EDA-PNU joined by sortase to the C-terminal G5SLPETG tag of the full light chain; Gly5-EDA-PNU joined by sortase to the C-terminal LPETG tag of the full heavy chain
IC50 values on 697 cells (in vitro cell killing) [4]: 106 ng/mL

B5: HuXBR1-402(8)-G5-PNU (Adc457) (other)
VH: B3 VH with R5Q
VL: SYELTQPPSVSVSPGQTAIITCEGNNIGSKAVHWYQQKPGLSPVLVIYDDDERPSGIPERFSGSNSGNTATLTVSGTQDMDEADYYCQVWDSSAYVFGGGTKLTVLG
modifications: Gly5-EDA-PNU joined by sortase to the C-terminal G5SLPETG tag of the full light chain; Gly5-EDA-PNU joined by sortase to the C-terminal LPETG tag of the full heavy chain
IC50 values on 697 cells (in vitro cell killing) [4]: 164 ng/mL

B6: HuXBR1-402(26)-G5-PNU (Adc461) (other)
VH: B3 VH with R5Q, K43N
VL: B3 VL with Q41L, K102Q
modifications: Gly5-EDA-PNU joined by sortase to the C-terminal G5SLPETG tag of the full light chain; Gly5-EDA-PNU joined by sortase to the C-terminal LPETG tag of the full heavy chain
IC50 values on 697 cells (in vitro cell killing) [4]: 93.9 ng/mL

B7: HuXBR1-402(17)-G5-PNU (Adc459) (other)
VH: B3 VH
VL: B3 VL with L8P, L14P, Q16K, A77V, Q78E
modifications: Gly5-EDA-PNU joined by sortase to the C-terminal G5SLPETG tag of the full light chain; Gly5-EDA-PNU joined by sortase to the C-terminal LPETG tag of the full heavy chain
IC50 values on 697 cells (in vitro cell killing) [4]: 70.6 ng/mL

B8: HuXBR1-402(19)-G5-PNU (Adc460) (other)
VH: B3 VH with R5Q, K43N
VL: B3 VL with L8P, L14P, Q16K, A77V, Q78E
modifications: Gly5-EDA-PNU joined by sortase to the C-terminal G5SLPETG tag of the full light chain; Gly5-EDA-PNU joined by sortase to the C-terminal LPETG tag of the full heavy chain
IC50 values on 697 cells (in vitro cell killing) [4]: 91.7 ng/mL

B9: ERR1-301 (mAb027) IgG with C-terminal sortase and Strep tags (antibody, V domains shown)
VH: QEQLEESGGGLVTPGGSLTLTCTASGFTISTYHMSWVRQAPGKGLEWIGSIYAGSGSTYYASWVNGRFTISSNTTQNTVSLQMNSLTVADTATYFCARDHPSYGMDLWGPGTLVTVSS
VL: SYELTQLPSVSVSLGQTARITCGGNSIGSKAVNWYQQKPGLAPGLLIYDDDERPSGVPDRFSASNSGDTATLTISGAQAEDEADYYCQLWDSSAVAYVFGGGTQLTVTG
notes: Human IgG1 constant regions
binding result [5]: no binding (tested: about 500 ng/ml)

From patent US20220153839A1 (NBE THERAPEUTICS, published 2022)
